Each block holds one binder with its values, some of them ahead of it.
Key:
[1] = biological target: T1, N-terminally His6-tagged cMyc-tagged human CCR1 (human, UniProt P32246 1-355); assay: cell-based or functional assay
T1 sequence (looked up): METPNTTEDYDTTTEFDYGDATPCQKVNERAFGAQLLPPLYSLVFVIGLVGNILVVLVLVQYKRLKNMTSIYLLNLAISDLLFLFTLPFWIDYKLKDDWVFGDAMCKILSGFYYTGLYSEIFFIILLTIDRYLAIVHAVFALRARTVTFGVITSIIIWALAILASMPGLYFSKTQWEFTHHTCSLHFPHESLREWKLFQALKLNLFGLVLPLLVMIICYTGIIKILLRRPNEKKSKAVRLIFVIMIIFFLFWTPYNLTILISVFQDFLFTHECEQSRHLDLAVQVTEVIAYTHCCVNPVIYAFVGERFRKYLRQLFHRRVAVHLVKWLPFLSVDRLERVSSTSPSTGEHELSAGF

[2] = biological target: T1, N-terminally His6-tagged cMyc-tagged …; assay: radioligand binding; competitive displacement of 50 pM 125I-CCL3 from membranes of Flp-In T-REx 293 cells expressing CCR1; 2 h at 37 °C; two sets of experiments (Table 1, Table 3); conditions: one partner purified
[3] = biological target: T1, N-terminally His6-tagged cMyc-tagged …; assay: as above; conditions: one partner purified; remark: listed apart in the source
[4] = biological target: T1, N-terminally His6-tagged cMyc-tagged …; assay: cell-based or functional assay; remark: listed apart in the source

ERK1/2 phosphorylation, EC50 [1]: 65.5 nM
ERK1/2 phosphorylation, pEC50 [1]: 7.2 -log M
G protein activation (Gαi1, BRET), EC50 [1]: 30 nM
G protein activation (Gαi1, BRET), pEC50 [1]: 7.5 -log M
inhibition of forskolin-induced cAMP production, EC50 [1]: 48 nM
inhibition of forskolin-induced cAMP production, pEC50 [1]: 7.3 -log M
IC50 [2]: 2.3 nM
pIC50 [2]: 8.6 -log M
B1: CCL8 (Lys-46 allele, Pro-8→Ala) (ligand, human, UniProt P80075 24-99, looked up)
chain: QPDSVSIAITCCFNVINRKIPIQRLESYTRITNIQCPKEAVIFKTKRGKEVCADPKERWVRDSMKHLDQIFQNLKP
notes: CCL8 (MCP-2), human, Lys-46 allele, with Pro-8→Ala to make the protein monomeric; N-terminal region of ten residues before the CC motif; also called MCP-2; not shown: His6, N-terminal, cleaved

IC50 [3]: 1.2 nM
pIC50 [3]: 8.9 -log M
ERK1/2 phosphorylation, EC50 [1]: 9.6 nM
ERK1/2 phosphorylation, pEC50 [1]: 8 -log M
G protein activation (Gαi1, BRET), EC50 [1]: 14 nM
G protein activation (Gαi1, BRET), pEC50 [1]: 7.9 -log M
inhibition of forskolin-induced cAMP production, EC50 [1]: 9.5 nM
inhibition of forskolin-induced cAMP production, pEC50 [1]: 8 -log M
IC50 [2]: 0.33 nM
pIC50 [2]: 9.5 -log M
Gαi2 activation (BRET), EC50 [4]: 26.4 nM
Gαi2 activation (BRET), pEC50 [4]: 7.6 -log M
B2: CCL7 (ligand)
chain: not shown
notes: CCL7 (MCP-3), human, wild type; N-terminal region of ten residues before the CC motif; also called monocyte chemoattractant protein-3; MCP-3; not shown: His6, N-terminal, cleaved

Reference: article PMC6566870, “Influence of Chemokine N-Terminal Modification on Biased Agonism at the Chemokine Receptor CCR1” (International Journal of Molecular Sciences, 2019)
